Reference: patent US20110200590A1

How the values were obtained:
Assay in all cases: cell-based or functional assay
[1] = target: FcRI (CD64), high affinity immunoglobulin gamma Fc receptor I, on human monocytes (human) (UniProt P12314)
[2] = target: Interleukin-10 (IL-10) released by human monocytes (human) (UniProt P22301)
[3] = target: anti-MBP (105-120) monoclonal IgM Mab 1, clone DM1A2C1

Sequence of UniProt P12314 (P12314 16-374 limits assumed, form in doubt): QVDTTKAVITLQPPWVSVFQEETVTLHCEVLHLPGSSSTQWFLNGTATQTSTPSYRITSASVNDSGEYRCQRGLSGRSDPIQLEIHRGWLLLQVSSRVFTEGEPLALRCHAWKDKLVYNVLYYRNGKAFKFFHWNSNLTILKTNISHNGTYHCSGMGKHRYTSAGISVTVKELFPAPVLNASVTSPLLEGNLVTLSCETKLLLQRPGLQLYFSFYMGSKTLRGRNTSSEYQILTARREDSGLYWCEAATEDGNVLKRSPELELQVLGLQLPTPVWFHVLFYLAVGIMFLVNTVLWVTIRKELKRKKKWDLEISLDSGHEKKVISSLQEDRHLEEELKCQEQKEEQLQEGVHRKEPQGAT
Sequence of UniProt P22301 (P22301 19-178 limits assumed): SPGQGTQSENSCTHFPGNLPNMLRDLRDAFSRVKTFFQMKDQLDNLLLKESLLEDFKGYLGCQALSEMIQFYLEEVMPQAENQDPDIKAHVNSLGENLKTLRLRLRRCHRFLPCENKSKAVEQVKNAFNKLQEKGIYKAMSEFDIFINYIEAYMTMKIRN

Molecule: mouse monoclonal antibody anti-human CD64, IgG1 (Ancell)
- % inhibition of proliferation of human MBP+-T cells (T + PBM + Mab CD64) [1]: 100%
- % inhibition of proliferation of human MBP+-T line (T + PBM + Mab CD64) [1]: 98%
- Levels of IL-10 in the supernatants of human monocytes (MNC + Mab CD64) [1]: 3950 pg/mL
- Levels of IL-10 in the supernatants of human monocytes activated with LPS (MNC + LPS + Mab CD64) [1]: 6360 pg/mL

Molecule: neutralising monoclonal antibody anti-human IL-10 (R&D Systems)
- % inhibition of proliferation of human MBP+-T line by Mab 1 in the presence of Mab IL-10 (T + PBM + Mab 1 + Mab IL-10) [2]: 0%
- % inhibition of proliferation of human MBP+-T line by Mab CD64 in the presence of Mab IL-10 (T + PBM + Mab CD64 + Mab IL-10) [2]: 0%

Molecule: QFLGSYL [“scrambled” peptide (QFLGSYL Seq ID no 5)]
- % inhibition of proliferation of human MBP+-T cells by Mab 1 in the presence of pep 2 (T + PBM + Mab 1 + pep 2) [3]: 98%

Molecule: GLQLYFS [peptide 222-228 CD64 (GLQLYFS)]
- % inhibition of proliferation of human MBP+-T cells by Mab 1 in the presence of pep 1 (T + PBM + Mab 1 + pep 1) [3]: 0%
